For test [1], the target named is T1, human Sdc2 (human, UniProt P34741 19-144, limits assumed).
T1 construct: Antigen of the Octet tandem binning, loaded on biosensors at 100 nM; also called huSdc2; hSdc2
As to the kind of experiment: Octet tandem binning; saturating Ab f3 19838-6N03-A.

The target in test [2] is T1, human Sdc2. As to the kind of experiment: Octet tandem binning; saturating Ab f6 19844-R3-P3-E09. The method in brief: (§1)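 Human Sdc2 at 100 nM was loaded on biosensors, dipped in saturating antibody (25 μg/ml, 240 s), then competing antibody (5 μg/ml, 180 s). Competing-antibody signal was normalized to binding without saturating antibody (buffer), then clustered with pvclust.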

For test [3], the target named is T1, human Sdc2. As to the kind of experiment: Octet tandem binning; saturating Ab f9 19838-6-E17-A. A general note: BLI is a label-free optical method that tracks binding on a fibre tip over time.
Test [4] has as its target T1, human Sdc2. As to the kind of experiment: Octet tandem binning; saturating Ab m8 19844-R4M-P1-B01 (marked non-binding ligand).
Test [5] deals with T2, mouse Sdc2 (mouse, UniProt P43407 19-145, limits assumed).
T2 construct: Immobilised on Maxisorp plates for panning and ELISA; also called mSdc2; moSdc2
T2 sequence (P43407 19-145 limits assumed): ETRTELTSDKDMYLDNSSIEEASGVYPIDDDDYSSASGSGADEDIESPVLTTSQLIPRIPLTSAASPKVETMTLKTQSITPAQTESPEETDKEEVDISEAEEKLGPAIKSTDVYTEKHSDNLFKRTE
As to the kind of experiment: Octet BLI, HIS1K sensor loaded with moSdc2, antibody as sample; Full R2 0.9584.

Test [6] addresses T2, mouse Sdc2. As to the kind of experiment: Octet BLI, heading box over the sensorgram. As to the method:
(§2) In order to characterize the binding affinity and in vivo/in vitro functional ability of the twelve clones generated by the previous studies and disclosed in Table 1, a series of assays were performed on each clone. These assays measured the affinity of each antibody clone for human, pig, and mouse Sdc2 using an Octet® binding assay system. Additionally, the functional ability of each clone to inhibit VEGFA-driven permeability (see Santiago, et al. (2021) J Am Heart Assoc. 10(18):e020521) was assessed in two therapeutic settings: a “prevention” study in which three concentrations of antibody (5 μg/ml, 10 μg/ml, 15 μg/ml, 20 μg/ml, and/or 40 μg/ml depending on the study) were pre-incubated for an hour before administration of 100 ng/ml of VEGFA, and a “treatment” study in which 3 hours of pre-treatment with 100 ng/ml VEGFA were followed by treatment with antibody at 20 μg/ml or 40 μg/ml. Results are shown for 8-G17 in FIG. 8 and FIG. 9, 20-H19-AB in FIG. 10 and FIG. 11 (FIG. 12 for monkey ECs), R3-P3-C11 in FIG. 13 and FIG. 14, R4M-P3-E06 in FIG. 15 and FIG. 16, R3-P3-E09 in FIG. 17 and FIG. 18, R3-P1-C02 in FIG. 19 and FIG. 20, R3-P3-A12 in FIG. 21 and FIG. 22, R4M-P3-A12 in FIG. 23 and FIG. 24, and R4M-P1-A10 in FIG. 25 and FIG. 26.

Test [7] concerns the target T1, human Sdc2. As to the kind of experiment: Octet BLI, heading box over the sensorgram. On the procedure:
as §2

Test [8] concerns the target T3, pig Sdc2 (pig, UniProt F1S0L5 19-145).
T3 construct: also called pSdc2
As to the kind of experiment: Octet BLI, heading box over the sensorgram; the box prints nm, the table gives 1.50E-08 M. As to the method:
as §2

Test [9] concerns the target T1, human Sdc2. As to the kind of experiment: Octet tandem binning; saturating Ab m4 19844-R4M-P1-A10. The essentials:
as §1

T1 sequence (P34741 19-144 limits assumed): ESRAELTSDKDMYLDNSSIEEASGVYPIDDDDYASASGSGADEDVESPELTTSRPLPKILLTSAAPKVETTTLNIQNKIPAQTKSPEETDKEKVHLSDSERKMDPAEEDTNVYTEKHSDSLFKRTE

B1: R4M-P3-A12 (antibody, human IgG1, kappa, V domains shown)
VH: EVQLVESGGGVVQPGGSLRLSCAASGFTFSDHYMSWIRQAPGKGLEWVSYLSGSGTSIYYADSVKGRFTISRDNAKKSLYLQMNSLRAEDTAVYYCARVGPAAGNAFDIWGQGTMVTVSS
VL: QSVLTQPPSASGTPGQRVTISCSGSSSNIGSNYVYWYQQLPGTAPKLLIYRNNQRPSGVPDRFSGSKSGTSASLAITGLQAEDEADYYCQSYDSSLSGVVFGGGTKLTVLR
Regarding B1, the “raw competing-Ab binding signal” value in test [1] was 0.106; in test [2] it was -0.0526; in test [3], 0.115; in [4], 0.0929; in test [9], -0.0712. In addition, the Kd (as a rule, the equilibrium constant for the complex coming apart) in test [5] is 11.6 nM; in [6], ~11.6 nM; in test [7], ~14 nM; in test [8] it was ~15 nM. Besides, the koff (in general, the rate constant with which the complex falls apart) in [5] came to 0.00914 s⁻¹. Besides, in test [5], the kon (usually a measure of how fast the partners come together) is 3.74e+06 M⁻¹ s⁻¹.

These data come from patent publication US20250282885A1 (VST BIO, published 2025).
